Measurements as given in patent publication US20050089938A1, “Use of peptide fragments of the calcium channel a-1 subunit, optionally comprising mutations, for screening molecules of therapeutic interest” (priority 2001, published 2005).

Key:
Cav2.1 channel = target: T1, Cav2.1 channel (Oryctolagus cuniculus, UniProt P27884); assay: Inactivation kinetics of the Cav2.1 channel expressed in Xenopus oocytes, two-electrode voltage-clamp Ba2+ currents; assay type: cell-based, rabbit
T1 construct: expressed in transfected cells; host or cells: Xenopus laevis oocytes (cRNA injection)
Description: Xenopus oocytes are removed at Stages V and VI from ovaries of Xenopus laevis frogs from South Africa and maintained in standard saline solution (Barth's medium). The cells are treated with collagenase type IA (2 mg/ml) for two hours and the follicular membranes are eliminated manually. The oocytes are maintained in DNOM medium (defined nutrient oocyte medium) for 2 days before injection of cRNA coding for the Cav2.1 channel. The injection of this cRNA coding for the wild-type or mutated channel is carried out at a concentration of 0.3 μg/μl. In the case of coinjection of other cRNAs (for example: CD8-III-IV, III-IV, etc.), these cRNAs are injected at a concentration of 0.1 μg/μl. The injections of III-IV peptide are carried out at a final intracellular concentration of 10 μM. […] Following the cRNA injections, the cells are kept at 16° C. in DNOM medium for a minimum of 4-5 days before continuing with the electrophysiological recordings.
We applied the two-electrode voltage-clamp technique for the recordings of Ba^2+ currents (the Ba^2+ is more permeable than the Ca^2+ through the high-threshold calcium channels and facilitates our analyses). The recordings are carried out with a GeneClamp amplifier from Axon Instruments (Foster City, Calif.). […] The data are analyzed with the pCLAMP software suite version 6.03 (Axon Instruments). […]

III-IV loop of Cav2.1 = target: T2, III-IV loop of Cav2.1 (Oryctolagus cuniculus, UniProt P27884); assay: Binding of 35S-methionine labelled in vitro translated I-II loop to GST-III-IV fusion protein; design: species or system rabbit; details: 35S-methionine labelled I-II loop, absence of β sub-unit
T2 construct: This III-IV loop has been expressed and purified as a GST (Glutathione-S-Tranferase) fusion protein; made in house
Text: FIG. 2: Binding of the I-II loop of Cav2.1 to different intracellular loops. […] This III-IV loop has been expressed and purified as a GST (Glutathione-S-Tranferase) fusion protein. The I-II protein of the channel has been translated in vitro and labelled by a radioactive amino acid (^35S-methionine) in order to monitor its binding to the GST-III-IV fusion protein.
These two amino acids are therefore indispensable to the binding of the I-II loop to the III-IV loop in the absence of the β sub-unit of the calcium channel.

[1] = system: high threshold calcium channels; assay: High-threshold calcium current after expression of the I-II loop in bovine chromaffin cells; assay type: cell-based; details: bovine chromaffin cells transfected with I-II loop coupled to CD8 transmembrane segment and GFP
Text: (§1) The expression of the I-II loop of the Cav2.1 channel is induced following a cell transfection method (thanks to a transfection agent: lipofectamine, fugene etc.). In order to have the ability to bind the endogenous β sub-units to these cells, we have noted that the ability of this I-II sequence to reduce the expression at the plasma membrane of the endogenous high-threshold calcium channels is facilitated by its coupling to a transmembrane segment. The Inventors have used for their experiments the transmembrane segment of the α chain of the human CD8 receptor, coupled to the amino-terminal part of the I-II loop. In order to facilitate the detection of the transfected cells, the carboxy-terminal part of the I-II loop was coupled to GFP protein (Green Fluorescent Protein) which has the property of green fluorescence (easily detectable in fluorescence microscopy). FIG. 1A illustrates the construction used for these experiments. FIG. 1B illustrates the amino-acid sequence of the transmembrane sequence of the α chain of the CD8 receptor.

[2] = system: high threshold calcium channels; assay: High-threshold calcium current after expression of the I-II loop in rat cerebellum granular cells; assay type: cell-based; details: rat cerebellum granular cells transfected with I-II loop coupled to CD8 transmembrane segment and GFP
Text: as §1

T1 sequence (P27884 whole entry): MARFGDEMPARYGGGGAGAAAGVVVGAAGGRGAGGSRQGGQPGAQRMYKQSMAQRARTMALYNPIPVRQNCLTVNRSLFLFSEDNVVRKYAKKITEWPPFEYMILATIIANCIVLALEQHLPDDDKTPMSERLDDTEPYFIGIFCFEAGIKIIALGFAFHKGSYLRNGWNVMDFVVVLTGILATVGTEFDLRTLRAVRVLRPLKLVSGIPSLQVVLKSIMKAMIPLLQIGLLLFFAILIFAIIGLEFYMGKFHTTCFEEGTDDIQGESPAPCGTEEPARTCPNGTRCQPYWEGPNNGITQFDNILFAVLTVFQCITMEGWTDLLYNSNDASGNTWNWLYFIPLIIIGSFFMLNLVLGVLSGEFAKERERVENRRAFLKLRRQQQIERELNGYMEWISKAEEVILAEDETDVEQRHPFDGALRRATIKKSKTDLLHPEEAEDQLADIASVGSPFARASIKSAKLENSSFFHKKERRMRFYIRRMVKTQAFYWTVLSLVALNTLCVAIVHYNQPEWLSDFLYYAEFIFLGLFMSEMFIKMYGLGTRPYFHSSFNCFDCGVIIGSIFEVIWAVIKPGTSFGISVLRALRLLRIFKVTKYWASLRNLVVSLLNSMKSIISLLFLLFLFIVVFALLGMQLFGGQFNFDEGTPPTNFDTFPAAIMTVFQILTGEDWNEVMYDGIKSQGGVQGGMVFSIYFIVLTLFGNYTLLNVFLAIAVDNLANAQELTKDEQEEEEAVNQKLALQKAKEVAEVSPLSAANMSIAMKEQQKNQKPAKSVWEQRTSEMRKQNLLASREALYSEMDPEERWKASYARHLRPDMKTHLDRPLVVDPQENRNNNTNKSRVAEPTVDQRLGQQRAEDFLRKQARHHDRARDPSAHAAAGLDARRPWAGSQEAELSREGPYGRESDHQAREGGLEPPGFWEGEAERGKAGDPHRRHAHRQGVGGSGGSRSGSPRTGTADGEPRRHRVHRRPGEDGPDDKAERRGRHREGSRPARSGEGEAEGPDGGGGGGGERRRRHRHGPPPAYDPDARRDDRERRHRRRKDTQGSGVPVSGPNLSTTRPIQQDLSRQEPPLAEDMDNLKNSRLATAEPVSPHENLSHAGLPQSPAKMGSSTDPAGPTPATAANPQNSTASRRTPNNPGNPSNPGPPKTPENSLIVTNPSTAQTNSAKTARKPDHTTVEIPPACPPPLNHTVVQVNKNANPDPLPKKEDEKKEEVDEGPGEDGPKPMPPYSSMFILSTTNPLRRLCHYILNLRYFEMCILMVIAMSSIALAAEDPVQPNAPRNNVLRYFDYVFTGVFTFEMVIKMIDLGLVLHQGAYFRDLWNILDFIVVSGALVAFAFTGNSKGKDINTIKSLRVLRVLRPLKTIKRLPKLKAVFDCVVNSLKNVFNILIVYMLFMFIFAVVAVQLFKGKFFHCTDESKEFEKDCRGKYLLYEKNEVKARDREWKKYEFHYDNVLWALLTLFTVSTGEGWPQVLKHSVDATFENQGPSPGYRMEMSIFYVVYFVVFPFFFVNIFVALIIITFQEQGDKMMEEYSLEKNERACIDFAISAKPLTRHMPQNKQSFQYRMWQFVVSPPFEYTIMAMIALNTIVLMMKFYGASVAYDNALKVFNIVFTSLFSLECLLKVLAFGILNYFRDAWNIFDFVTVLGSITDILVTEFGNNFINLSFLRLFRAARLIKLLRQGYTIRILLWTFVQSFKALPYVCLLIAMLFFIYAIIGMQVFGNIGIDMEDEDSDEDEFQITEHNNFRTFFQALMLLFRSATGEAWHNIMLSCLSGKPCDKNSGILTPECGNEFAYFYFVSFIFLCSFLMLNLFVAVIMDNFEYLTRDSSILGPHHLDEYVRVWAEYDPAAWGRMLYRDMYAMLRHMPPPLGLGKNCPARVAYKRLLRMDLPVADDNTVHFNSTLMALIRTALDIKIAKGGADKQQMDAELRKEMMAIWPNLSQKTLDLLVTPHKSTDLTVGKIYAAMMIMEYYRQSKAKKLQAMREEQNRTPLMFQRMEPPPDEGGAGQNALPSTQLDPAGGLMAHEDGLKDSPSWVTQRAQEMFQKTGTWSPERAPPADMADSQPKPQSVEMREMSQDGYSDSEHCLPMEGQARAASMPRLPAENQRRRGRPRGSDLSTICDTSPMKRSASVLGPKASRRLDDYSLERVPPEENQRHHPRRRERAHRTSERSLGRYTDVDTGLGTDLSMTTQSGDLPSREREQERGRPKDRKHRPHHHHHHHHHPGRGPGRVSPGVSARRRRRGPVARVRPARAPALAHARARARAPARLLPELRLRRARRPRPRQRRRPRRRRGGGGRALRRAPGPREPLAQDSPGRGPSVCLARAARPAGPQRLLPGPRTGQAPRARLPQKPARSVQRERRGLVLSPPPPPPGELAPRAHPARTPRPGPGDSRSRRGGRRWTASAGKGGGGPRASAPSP
T2 sequence (P27884 1521-1575): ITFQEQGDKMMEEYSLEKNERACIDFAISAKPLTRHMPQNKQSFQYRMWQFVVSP

III-IV loop: III-IV loop of Cav2.1 expressed coupled in amino-terminal position with the α chain of the human CD8 receptor
effect on inactivation kinetics of the Cav2.1 channel (Cav2.1 channel; III-IV loop associated with the plasma membrane via amino-terminal coupling to α chain of human CD8 receptor, cRNA coinjection): accelerates the inactivation kinetics

peptide representing the 40 carboxy-terminal amino acids of the III-IV loop: peptide representing the 40 carboxy-terminal amino acids of the III-IV loop of Cav2.1 (LEKNERACIDFAISAKPLTRHMPQNKQSFQYRMWQFVVSP)
effect on inactivation kinetics of the Cav2.1 channel (Cav2.1 channel; peptide free in the cytoplasm, injected, final intracellular concentration 10 μM): acceleration is similar

B1: I-II loop of the Cav2.1 sub-unit: I-II loop of the Cav2.1 calcium channel sub-unit; in cells coupled to CD8 transmembrane segment and GFP (protein, listed as Oryctolagus cuniculus)
chain: SGEFAKERERVENRRAFLKLRRQQQIERELNGYMEWISKAEEVILAEDETDVEQRHPFDGALRRATIKKSKTDLLHPEEAEDQLADIASVGSPFARASIKSAKLENSSFFHKKERRMRFYIRRMVKTQ
binding to the GST-III-IV fusion protein (III-IV loop of Cav2.1): binding of I-II is evident | reduction of the high-threshold calcium current [1]: more than 50% | reduction of the high-threshold calcium current [2]: more than 50%
